Reference: the RNAGym collection of RNA variant scans (doi:10.1021/acssynbio.7b00057)

B1: Pistol ribozyme (parent)
chain: GGGUCGUUGUUCCAUAAUCGCGUGGAUAUGGCACGCAAGUUUCUACCGGGCACCGUAAAUGUCCGACUGGAGCCGUUCGGGCGGCUAUAAACAGACCUCAGGCCCGAAGCGUGGCGGCACCUGCCGCCGGUGGUAAAAAAGAUCGGAAGAGCACACGUCU

Variants of: B1
Test: aptazyme ON/OFF ratio, guanine; higher = stronger switching; co-transcriptional cleavage with and without guanine

Variant	aptazyme ON/OFF ratio
U7A G9U U10C U11G C12G C13G	1.16
U7G U8A G9U U10C U11A C12U C13U	1.06
U7C U8C G9C C13A	1.09
U8A G9C C12U C13A	1.21
U7C U8A G9A U10G U11G C12A	1.11
U7A U8G G9A U11C C12A C13U	1.38
U8A G9A U10A U11G	1.34
U7C U8G U10A U11G C12U	1.2
U7G U8G U11A C12U	1.38
U7A U8A G9C U10G U11A C12G	1.32
U7G U8G U10A U11C C12A C13U	1.47
U8C G9A U10A U11C C12U	1.09
U8C U11A C12G C13U	1.14
U8G U10A U11C C12U C13U	1.14
U8C U10A U11A C13A	1.17
U8C G9C U10G U11A C13U	1.06
G9U U10C U11C C12G C13A	1.08
U7A U8C G9U U10A U11C C12A	1.2
U7A G9U U10G U11G C12U C13A	1.26
U7C U8C U10A U11G C12G	1.41
U7G U8A U10A U11A C12U C13A	1.22
G9C U11C C12G C13A	1.13
U7C U8A G9U U11A C12G C13G	1.15
U7C U8G C12U C13U	1.3

Variant	aptazyme ON/OFF ratio
U7G U8C G9U U10G U11A C12U C13G	1.23
U7C U10G U11C C12U C13A	1.28
U7G U8G G9A U10G U11G C12U C13A	1.71
U7G C12A	1.14
U8A G9U U10G C12U C13G	1.27
U7G U8A G9C U10A U11A C12A C13U	1.02
U7C U8G G9U U10C C12G C13G	1.34
U11G	1.22
U7G U8C U10C U11C C12U C13U	1.11
U7G U10A C13U	1.16
U7C U8C G9C U10A U11C C12G C13G	1.15
U7C U8C G9U U10A U11G C12G C13U	1.07
U8C U10C C12G C13G	1.29
U7A U8G G9A U10C U11A C12U C13A	1.11
U8C G9A U10A U11G C12G	1.12
U7G U8C G9U U10C C12G C13U	1.29
U7C U8C G9A U11G C12U	1.34
U7G U8C G9C U10C U11G C12A C13A	1.19
U8G G9U U10C U11G C13G	1.03
G9A U10G U11C C12U C13G	1.22
U7G U8A U10G U11C C12G C13U	1.25
U8C G9U U11G C12A C13A	1.16
U8G G9A C12A C13G	1.27
U7C G9C U10C C12A	1.04

Variant	aptazyme ON/OFF ratio
U7C U8C G9U U11C C12U C13G	1.05
U7G U10A U11A C12A	1.07
U7C U8A G9C U10G U11C C12U C13G	1.27
U7C U8A G9U U10A C12G C13U	1.25
U7G U8A U10G U11G C12A	1.3
U7G U8C G9U U11C C12U C13A	1.31
U7A U8A G9C U11G C12G C13U	1.16
U7C U8A U11C C12U C13A	1.31
U7C U8C G9U U10C U11A C12A C13U	1.09
U8A G9U U10C U11A C13G	1.03
U8G G9C U11C	1.03
U7C G9C U10G U11A C12G C13U	1.09
U7C U8C G9U U10A U11G C12A	1.2
G9C U10G C12A C13G	1.11
U7A U8A G9U U10C U11G C13U	1.14
U8C G9A U10G U11C C12A C13A	1.15
U8G G9U C12U	1.77
U7A U8C G9U U10G C12U C13A	1.61
U7C U8C G9C U10A U11C C12U C13G	1.13
U7A U8G G9C U11C	1.35
U10A U11A C12G	1.83
U7A U8C G9A U10A U11C C12U	1.09
U7A G9U U11A C12A	1.28
U7G U8A U10C C12G C13G	1.17

Variant	aptazyme ON/OFF ratio
U7A U8C G9A U11A C12U C13U	1.18
U7C U8C U10C U11A C12A	1.31
U8C G9C U10G U11C C12G C13A	1.14
U8C U11C C12G	1.34
U7A U8C U10C U11A C12A C13U	1.21
U7G U8C G9A U10C U11G C12U C13G	1.22
U7A G9A U11C C13G	1.08
U8G G9A U10A U11A C13U	1.17
U7A U8C G9C U10A C12U C13A	1.05
U7G U8G U10C C13U	1.81
U7G U8C G9U U10C U11C	1.32
G9A U11A C13G	1.1
U7C U8C G9A U10G U11G C12A C13A	1.2
U7A U10G U11A C12A C13G	1.11
U7A U8C G9U C12U	1.33
U7G G9C U10A U11A C12A C13U	1.29
U7G U8A G9U U11A C13U	1.11
U7A U8G G9C U10G U11A C12G	1.39
U7A G9A U10A U11C	1.07
U7C U8A G9U C13U	1.28
U7C U8A G9U U11C C12A C13A	1.1
U7C U8G G9U U10A C13U	1.1
U8G U10A U11G C13G	1.04
U7C U10A U11G C12G C13A	1.26

Variant	aptazyme ON/OFF ratio
U7G U8G G9C U10G C12U C13U	1.09
U7A U8A G9A U11C C12A C13A	1.17
U7C U8G G9C U10C C12G C13G	1.09
U7C C12G C13A	1.18
U7C U8G G9A U10G	2.11
U7G U8C U11G C12A C13A	1.13
U7A U8A G9A U10G C12A C13A	1.21
U7A U8A G9A U10C U11G C12U C13G	1.05
U8A U11G	1.25
U7C U8A U10C U11A C13A	1.12
U7A U8G U11A C12U C13G	1.35
U7C U8G G9A U10C C13A	1.04
U10A U11C C12G C13U	1.23
U7A U8C G9U U10G U11C C13A	1.17
U7A G9U U11A C12U C13G	1.28
U7C U8G G9C U10C U11G C12U C13U	1.07
U7G U8C G9A U11A C12G C13U	1.1
U7C G9C U10A C12U C13G	1.07
U7C G9C U11G C13G	1.03
U7C U10A C12G C13U	1.23
U8G U10G U11C C13A	1.04
U8A U11A C12A C13G	1.16
U7A U8C G9U U10G U11C C12U C13G	1.19
U8G G9U U11G C13U	1.05

Variant	aptazyme ON/OFF ratio
U7A U8A U10A C12U C13A	1.28
G9C U11G C13U	1.31
U7C U8C G9C U10G U11C C12A	1.09
U8A G9A U10G C12U C13A	1.34
U7G U8A G9U U10C U11G C12U	1.35
U7C U8A G9U U10A U11G C12U C13U	1.31
U7C U8G G9A U10C U11A C12A C13G	1.08
U7A G9C U11G	1.41
U7A U8A G9C U10C U11A C12G C13U	1.1
U7A U8C G9C U10G U11C C12G	1.21
U7G U8C G9A U10A U11C C12U C13U	1.16
U7G U8G G9C U11A C13U	1.36
U7G U10A C12G C13A	1.15
U7C U8A U10A C12G C13A	1.32
U8A G9U U10G U11G C12U C13U	1.35
U8G U10C U11G C12U	1.33
U7A U8G G9A C12A	1.69
U7G U8A U11A	2.25
U7C G9U U11A C12A C13U	1.29
U7C U8C U10G U11A C12G	1.14
U7C G9A U10G C12G C13U	1.15
U7G G9A C12A C13G	1.15
U7G U8C G9U U10A U11G C12A C13U	1.11
U7G U8C G9C U10G U11G C12U C13U	1.12

Variant	aptazyme ON/OFF ratio
U7C U8A	3.27
U7G U8G U10A U11C C12U C13A	1.42
U7G U8A G9C C12A C13G	1.03
U7G U8G G9U U10A C12U C13A	1.11
U7A U8G G9U U10C U11C C12G C13G	1.11
U8C G9A U11G C12G C13G	1.19
U7C G9C C12A C13G	1.07
U7C U8G G9C C12G C13A	1.27
U8A G9C U11G C12G C13A	1.18
G9U U10C C13A	1.22
U7G U8G G9A U11A C12A C13U	1.38
U7G U8G U10G U11G C12G C13U	1.31
U7A U8C G9C U10G U11A C12A C13U	1.06
U7G U8A U10C U11G C12G C13G	1.11
U8C G9U U10C U11C C12G	1.09
U7C U10G U11G C12U C13G	1.1
U8A G9A U10C U11C C12U C13G	1.05
U7C U8C U10G U11G C12U C13G	1.12
U7G U8C G9A U11A C12A C13A	1.08
U8A G9A U10G U11G	1.07
U8A G9A U10C U11C C12A C13U	1.02
U7A U8G U10C C13U	1.4
U7C U8C G9U U10G C12G C13G	1.07
